B1: CCL19 (ligand, UniProt Q99731 22-98, looked up)
chain: GTNDAEDCCLSVTQKPIPGYIVRNFHYLLIKDGCRVPAVVFTTLRGRQLCAPPDQPWVERIIQRLQRTSAKMKRRSS
notes: also called unlabeled CCL19
B2: CCL21 (ligand, UniProt O00585 24-134, looked up)
chain: SDGGAQDCCLKYSQRKIPAKVVRSYRKQEPSLGCSIPAILFLPRKRSQAELCADPKELWVQQLMQHLDKTPSPQKPAQGCRKDRGASKTGKKGKGSKGCKRTERSQTPKGP

How the values were obtained:
[1] = molecular target: T1, CCR7 expressed on CHO-K1 cells (UniProt P32248 25-378); assay: radioligand binding; competition on CHO-K1 cells expressing CCR7 only; tracer 0.1 nM 125I-CCL19, increasing concentrations of unlabelled competitor; non-specific binding defined with 300 nM competitor; details: one partner purified
T1 construct: chemokine receptor CCR7, recombinant, on CHO-K1 cells; source: CHO-K1 cells expressing CCR7 only or co-expressing CXCR4 and CCR7
T1 sequence (looked up): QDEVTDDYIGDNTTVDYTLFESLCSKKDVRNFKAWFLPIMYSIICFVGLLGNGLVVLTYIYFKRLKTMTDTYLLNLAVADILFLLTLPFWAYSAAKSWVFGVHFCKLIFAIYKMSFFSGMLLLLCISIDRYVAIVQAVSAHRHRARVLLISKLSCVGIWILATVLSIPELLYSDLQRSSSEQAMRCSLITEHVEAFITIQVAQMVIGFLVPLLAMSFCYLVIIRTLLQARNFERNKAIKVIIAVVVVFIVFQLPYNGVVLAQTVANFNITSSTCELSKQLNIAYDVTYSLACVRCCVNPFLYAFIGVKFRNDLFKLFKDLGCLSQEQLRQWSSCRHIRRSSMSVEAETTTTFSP

[2] = molecular target: T1, CCR7 expressed on CHO-K1 cells; assay: radioligand binding; competition on CHO-K1 cells co-expressing CXCR4 and CCR7; tracer 0.1 nM 125I-CCL19, increasing concentrations of unlabelled competitor; non-specific binding defined with 300 nM competitor; details: one partner purified

Binder | IC50 [1] | IC50 [2]
B1 | 1.84 nM | 1.7 nM
B2 | 4.06 nM | 4.2 nM
